Assay results: patent publication US20080318246A1 (ALBERT EINSTEIN COLLEGE OF MEDICINE OF YESHIVA UNIVERSITY, published 2008)
Square brackets hold non-standard residues; d marks the D form. Carminic acid = quencher bound covalently; Ala(Pyr) = not defined here; Dap = NC[C@H](N)C(=O)O

Molecular target: T1, 14-3-3τ (UniProt P27348 1-245)
T1 sequence (looked up): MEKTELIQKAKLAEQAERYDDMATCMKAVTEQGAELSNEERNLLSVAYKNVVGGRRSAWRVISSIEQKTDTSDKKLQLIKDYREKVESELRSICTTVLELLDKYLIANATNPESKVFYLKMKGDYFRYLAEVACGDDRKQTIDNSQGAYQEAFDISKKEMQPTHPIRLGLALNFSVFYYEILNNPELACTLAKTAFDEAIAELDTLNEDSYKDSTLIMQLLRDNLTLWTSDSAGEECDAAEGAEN
Test: cell-based or functional assay

## Ac-G[Ala(Pyr)]TGRR[Dap](Carminic acid)SLPA-NH2 (reading uncertain; also: Ser phosphorylated by PKA in the assay) [P14, AcGAla(Pyr)TGRRDap(Carminic acid)SLPA-amide, serine-phosphorylated by PKA in the assay]
  fold increase in fluorescence upon phosphorylation by PKA: 2.2 fold
